{"source": "patent US20070087448", "proteins": {"B1": {"name": "hog kidney dipeptidyl peptidase IV (DPPase IV), purchased from the Sigma Chemical Company (protein)", "chain": "DSRRTYTLTDYLKSTFRVKFYTLQWISDHEYLYKQENNILLFNAEYGNSSIFLENSTFDELGYSTNDYSVSPDRQFILFEYNYVKQWRHSYTASYDIYDLNKRQLITEERIPNNTQWITWSPVGHKLAYVWNNDIYVKNEPNLSSQRITWTGKENVIYNGVTDWVYEEEVFSAYSALWWSPNGTFLAYAQFNDTEVPLIEYSFYSDESLQYPKTVRIPYPKAGAENPTVKFFVVDTRTLSPNASVTSYQIVPPASVLIGDHYLCGVTWVTEERISLQWIRRAQNYSIIDICDYDESTGRWISSVARQHIEISTTGWVGRFRPAEPHFTSDGNSFYKIISNEEGYKHICHFQTDKSNCTFITKGAWEVIGIEALTSDYLYYISNEHKGMPGGRNLYRIQLNDYTKVTCLSCELNPERCQYYSASFSNKAKYYQLRCFGPGLPLYTLHSSSSDKELRVLEDNSALDKMLQDVQMPSKKLDVINLHGTKFWYQMILPPHFDKSKKYPLLIEVYAGPCSQKVDTVFRLSWATYLASTENIIVASFDGRGSGYQGDKIMHAINRRLGTFEVEDQIEATRQFSKMGFVDDKRIAIWGWSYGGYVTSMVLGAGSGVFKCGIAVAPVSKWEYYDSVYTERYMGLPTPEDNLDYYRNSTVMSRAENFKQVEYLLIHGTADDNVHFQQSAQLSKALVDAGVDFQTMWYTDEDHGIASNMAHQHIYTHMSHFLKQCFSLP"}}, "key": {"[1]": {"molecular_target": "T1, T45S variant of human apolipoprotein C1 (low mass variant, m/z=6617/6618)", "T1 chain": "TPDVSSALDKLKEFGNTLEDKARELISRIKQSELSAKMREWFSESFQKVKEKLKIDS"}, "[2]": {"molecular_target": "plasma peptide at m/z=5082±4"}, "[3]": {"molecular_target": "T2, human apolipoprotein C1, common form (m/z=6631)", "T2 chain": "T1 chain with S45T"}}, "note": "Changes are numbered by the printed parent chain."}
{"protein": "B1", "values": [{"measurement": "rate of enzyme cleavage (m/z=6618 conversion to m/z=6420) relative to the common form of apolipoprotein C1", "setting": "[1]", "value": "3.1 times the rate of degradation of the more common form of apolipoprotein C1"}, {"measurement": "MALDI-TOF profile after 2 hours of digestion of diluted plasma with 1 unit of enzyme", "setting": "[2]", "value": "The 5082 peak had been completely digested to the 4885 peak"}, {"measurement": "MALDI-TOF profile after incubation of human plasma with the enzyme (conversion of the 6631 peak to the 6433 peak)", "setting": "[3]", "value": "The enzyme converted all of the material in the peak at 6631 to material in the 6433 peak"}, {"measurement": "rate of enzyme cleavage (m/z=6631 conversion to m/z=6433), reference for the T45S variant", "setting": "[3]", "value": "degradation of the more common form of apolipoprotein C1 (m/z=6631 conversion to m/z=6433)"}]}
